# Test results taken from patent publication US20250011433A1 (GLIKNIK, published 2025).
# Numbering of substitutions follows the chain as printed. Names and notes keep the numbering of the source.
# T1: FcγRIIb (UniProt P31994 46-217, limits assumed)
# T1 sequence (looked up): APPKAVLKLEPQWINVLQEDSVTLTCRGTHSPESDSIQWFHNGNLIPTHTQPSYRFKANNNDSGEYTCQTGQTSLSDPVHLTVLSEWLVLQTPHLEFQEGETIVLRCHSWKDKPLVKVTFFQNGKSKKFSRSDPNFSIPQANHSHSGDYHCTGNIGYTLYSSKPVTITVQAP
# B1: G1068 (Fc fusion)
# chain: EPKSCDKTHTCPPCPAPELLGGPSVFLFPPKPKDTLMISRTPEVTCVVVDVEFEDPEVKFNWYVDGVEVHNAKTKPREEQYNSAYRVVSVLTVLHQDWLNGKEYKCKVTNKALPAPIEKTISKAKGQPREPQVYTLPPSRDELTKNQVSLTCLVKGFYPSDIAVEWESNGQPENNYKTTPPVLDSDGSFFLYSKLTVDKSRWQQGNVFSCSVMHEALHNHYTQKSLSLSPGKERKCCVECPPCP
# notes: G045c background, S267E/H268F/S324T/T299A; leader 1-20 cleaved
# B2: G1074 (Fc fusion)
# chain: B1 chain with E52D, N82A, A84T
# notes: G045c background, S267D/H268F/S324T/N297A; leader 1-20 cleaved
# B3: G1128 (Fc fusion)
# chain: B1 chain with E18P, G21K, E52N, A84T
# notes: G045c background, E233P/G236K/S267N/H268F/S324T; leader 1-20 cleaved
# B4: G1107 (Fc fusion)
# chain: B1 chain with E52H
# notes: G045c background, S267H/H268F/S324T/T299A; leader 1-20 cleaved
# B5: G1108 (Fc fusion)
# chain: B1 chain with E18P, E52N, A84T
# notes: G045c background, E233P/S267N/H268F/S324T; leader 1-20 cleaved
# B6: G1101 (Fc fusion)
# chain: B1 chain with E18P, E52D, A84T
# notes: G045c background, E233P/S267D/H268F/S324T; leader 1-20 cleaved
# B7: G1117 (Fc fusion)
# chain: B1 chain with E18P, G21D, E52D, A84T
# notes: G045c background, E233P/G236D/S267D/H268F/S324T; leader 1-20 cleaved
# B8: G1125 (Fc fusion)
# chain: B1 chain with E18P, E52H, A84T
# notes: G045c background, E233P/S267H/H268F/S324T; leader 1-20 cleaved
# B9: G1092 (Fc fusion)
# chain: B1 chain with E52D
# notes: G045c background, S267D/H268F/S324T/T299A; leader 1-20 cleaved
# B10: G1094 (Fc fusion)
# chain: B1 chain with E52Q
# notes: G045c background, S267Q/H268F/S324T/T299A; leader 1-20 cleaved
# B11: G1118 (Fc fusion)
# chain: B1 chain with E18P, G21Q, E52Q, A84T
# notes: G045c background, E233P/G236Q/S267Q/H268F/S324T; leader 1-20 cleaved
# B12: G1089 (Fc fusion)
# chain: B1 chain with E18P, G21R, E52S, A84T
# notes: G045c background, E233P/G236R/H268F/S324T; leader 1-20 cleaved
# B13: G1102 (Fc fusion)
# chain: B1 chain with E18P, E52Q, A84T
# notes: G045c background, E233P/S267Q/H268F/S324T; leader 1-20 cleaved
# B14: G1111 (Fc fusion)
# chain: B1 chain with E18P, G21D, E52Q, A84T
# notes: G045c background, E233P/G236D/S267Q/H268F/S324T; leader 1-20 cleaved
# B15: G1129 (Fc fusion)
# chain: B1 chain with E18P, G21N, A84T
# notes: G045c background, E233P/G236N/S267E/H268F/S324T; leader 1-20 cleaved
# B16: G1122 (Fc fusion)
# chain: B1 chain with E18P, G21H, E52Q, A84T
# notes: G045c background, E233P/G236H/S267Q/H268F/S324T; leader 1-20 cleaved
# B17: G1104 (Fc fusion)
# chain: B1 chain with E18P, G21D, E52S, A84T
# notes: G045c background, E233P/G236D/H268F/S324T; leader 1-20 cleaved
# B18: G1103 (Fc fusion)
# chain: B1 chain with E18P, G21E, E52S, A84T
# notes: G045c background, E233P/G236E/H268F/S324T; leader 1-20 cleaved
# B19: G1105 (Fc fusion)
# chain: B1 chain with E18P, G21N, E52S, A84T
# notes: G045c background, E233P/G236N/H268F/S324T; leader 1-20 cleaved
# B20: G1088 (Fc fusion)
# chain: B1 chain with E18P, G21Q, E52S, A84T
# notes: G045c background, E233P/G236Q/H268F/S324T; leader 1-20 cleaved
# B21: G1124 (Fc fusion)
# chain: B1 chain with E18P, G21K, E52K, A84T
# notes: G045c background, E233P/G236K/S267K/H268F/S324T; leader 1-20 cleaved
# B22: G1130 (Fc fusion)
# chain: B1 chain with E18P, G21N, E52K, A84T
# notes: G045c background, E233P/G236N/S267K/H268F/S324T; leader 1-20 cleaved
# B23: G1095 (Fc fusion)
# chain: B1 chain with E52N
# notes: G045c background, S267N/H268F/S324T/T299A; leader 1-20 cleaved
# B24: G1114 (Fc fusion)
# chain: B1 chain with E18P, G21Q, E52D, A84T
# notes: G045c background, E233P/G236Q/S267D/H268F/S324T; leader 1-20 cleaved
# B25: G1082 (Fc fusion)
# chain: B1 chain with E18P, G21H, E52S, A84T
# notes: G045c background, E233P/G236H/H268F/S324T; leader 1-20 cleaved
# B26: G1121 (Fc fusion)
# chain: B1 chain with E18P, G21D, E52K, A84T
# notes: G045c background, E233P/G236D/S267K/H268F/S324T; leader 1-20 cleaved
# B27: G1110 (Fc fusion)
# chain: B1 chain with E18P, G21D, E52R, A84T
# notes: G045c background, E233P/G236D/S267R/H268F/S324T; leader 1-20 cleaved
# B28: G1106 (Fc fusion)
# chain: B1 chain with E18P, G21K, E52S, A84T
# notes: G045c background, E233P/G236K/H268F/S324T; leader 1-20 cleaved
# B29: G1075 (Fc fusion)
# chain: B1 chain with E52Q, N82A, A84T
# notes: G045c background, S267Q/H268F/S324T/N297A; leader 1-20 cleaved
# B30: G1115 (Fc fusion)
# chain: B1 chain with E18P, G21E, E52R, A84T
# notes: G045c background, E233P/G236E/S267R/H268F/S324T; leader 1-20 cleaved
# B31: G1131 (Fc fusion)
# chain: B1 chain with E18P, G21R, E52N, A84T
# notes: G045c background, E233P/G236R/S267N/H268F/S324T; leader 1-20 cleaved
# B32: G1120 (Fc fusion)
# chain: B1 chain with E18P, G21R, E52Q, A84T
# notes: G045c background, E233P/G236R/S267Q/H268F/S324T; leader 1-20 cleaved
# B33: G1069 (Fc fusion)
# chain: B1 chain with E52S, N82A, A84T
# notes: G045c background, H268F/S324T/N297A; leader 1-20 cleaved
# Target: T1, FcγRIIb
# Test: BLI (Octet)
# Protocol: (§1) Binding of complement-preferential stradomers or parent stradomer G045c to FcγRI, FcγRIIb, FcγRIIIa, FcγRIIa, or FcRn was assessed. RU values of dissociation were measured by biolayer interferometry using a ForteBio Octet instrument. His-tagged receptor proteins were bound to the sensor tip in 1× kinetic analysis buffer from ForteBio after which the on rate of the receptor/protein was measured by transferring the sensor tip to a 1× kinetics buffer containing the purified stradomer of choice. Off rate was measured by transferring the sensor tip to a 1× kinetics buffer, and RU value was calculated from the measured maximum binding using the ForteBio software. Biolayer interferometry detects the binding between a ligand immobilized on the biosensor tip surface and an analyte in solution. When binding occurs it produces an increase in optical thickness at the biosensor tip, which results in a wavelength shift (detected as a response unit of “RU”). The maximum binding level (RU max) is the maximum possible amount of sample binding at equilibrium that saturates the amount of ligand on the sensor surface. The RU 300 is the residual sample binding after 300 seconds of dissociation and is useful to characterize the rate of dissociation of the test article from the test ligand.
# (§2) For each stradomer in Tables 5-9, the level of canonical FcγR binding, complement C1q binding, and CDC inhibition were determined according to the methods described in Example 1.
row,Binder,binding result
1,B1,binds
2,B2,binds
3,B3,binds
4,B4,binds
5,B5,binds
6,B6,binds
7,B7,binds
8,B8,binds
9,B9,binds
10,B10,binds
11,B11,binds
12,B12,binds
13,B13,binds
14,B14,binds
15,B15,binds
16,B16,binds
17,B17,binds
18,B18,binds
19,B19,binds
20,B20,binds
21,B21,binds
22,B22,binds
23,B23,binds
24,B24,binds

# Target: T2, FcγRI (UniProt P12314 16-288)
# T2 construct: also called CD64
# Test: BLI (Octet)
# Protocol: as §1, §2
# T2 sequence (P12314 16-288 limits assumed): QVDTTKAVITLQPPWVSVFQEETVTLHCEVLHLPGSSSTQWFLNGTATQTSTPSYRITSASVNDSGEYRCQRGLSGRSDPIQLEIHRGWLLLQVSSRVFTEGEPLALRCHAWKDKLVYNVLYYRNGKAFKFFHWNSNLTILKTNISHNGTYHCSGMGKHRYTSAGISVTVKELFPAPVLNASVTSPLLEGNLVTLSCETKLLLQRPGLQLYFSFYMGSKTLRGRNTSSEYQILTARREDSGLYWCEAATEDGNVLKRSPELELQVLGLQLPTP
row,Binder,binding result
1,B1,binds
2,B2,binds
3,B3,binds
4,B25,binds
5,B4,binds
6,B5,binds
7,B6,binds
8,B7,binds
9,B8,binds
10,B9,binds
11,B26,binds
12,B10,binds
13,B11,binds
14,B12,binds
15,B13,binds
16,B27,binds
17,B28,binds

row,Binder,binding result
1,B14,binds
2,B15,binds
3,B29,binds
4,B30,binds
5,B16,binds
6,B17,binds
7,B18,binds
8,B31,binds
9,B19,binds
10,B20,binds
11,B21,binds
12,B22,binds
13,B23,binds
14,B32,binds
15,B24,binds
16,B33,binds

# Target: C1q (UniProt P02745 23-245; P02746 28-253; P02747 29-245)
# Test: cell-based or functional assay
# C1q, sequence (P02745 23-245 limits assumed, chain 1 of 3): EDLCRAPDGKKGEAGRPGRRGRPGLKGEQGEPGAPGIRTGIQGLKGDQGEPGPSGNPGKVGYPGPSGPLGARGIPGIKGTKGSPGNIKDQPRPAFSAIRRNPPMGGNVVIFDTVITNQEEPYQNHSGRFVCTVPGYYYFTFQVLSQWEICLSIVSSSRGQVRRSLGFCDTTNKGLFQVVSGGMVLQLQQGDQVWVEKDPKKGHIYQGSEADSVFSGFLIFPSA
# C1q, sequence (P02746 28-253 limits assumed, chain 2 of 3): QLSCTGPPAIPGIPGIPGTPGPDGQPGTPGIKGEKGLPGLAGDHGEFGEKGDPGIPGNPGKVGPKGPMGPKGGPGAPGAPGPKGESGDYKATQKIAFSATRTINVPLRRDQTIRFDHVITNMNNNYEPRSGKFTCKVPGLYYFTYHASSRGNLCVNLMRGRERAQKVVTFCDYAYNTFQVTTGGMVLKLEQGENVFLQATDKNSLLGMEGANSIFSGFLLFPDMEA
# C1q, sequence (P02747 29-245 limits assumed, chain 3 of 3): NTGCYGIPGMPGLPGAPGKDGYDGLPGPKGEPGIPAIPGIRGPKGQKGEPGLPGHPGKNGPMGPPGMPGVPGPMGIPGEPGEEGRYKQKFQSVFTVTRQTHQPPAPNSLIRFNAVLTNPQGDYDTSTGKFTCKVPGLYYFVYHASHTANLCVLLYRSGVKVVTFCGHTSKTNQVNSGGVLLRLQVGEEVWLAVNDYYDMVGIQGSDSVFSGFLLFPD
row,Binder,"CDC Inhibition (EC50, µg/mL)"
1,B25,5 µg/mL
2,B4,12.5 µg/mL
3,B5,5 µg/mL
4,B6,5 µg/mL
5,B7,5 µg/mL
6,B8,5 µg/mL
7,B10,12.5 µg/mL
8,B13,7.5 µg/mL
9,B27,25 µg/mL
10,B14,5 µg/mL
11,B15,5 µg/mL
12,B29,15 µg/mL
13,B30,50 µg/mL
14,B16,5 µg/mL
15,B17,5 µg/mL
16,B18,5 µg/mL
17,B31,15 µg/mL
18,B19,5 µg/mL
19,B20,5 µg/mL
20,B23,15 µg/mL
21,B24,5 µg/mL
